Assay results published in patent publication WO2018087143A2 (dated 2018).

Experiments:
[1] = target: T1, cynomolgus monkey PD-1-rCD4 (cynomolgus monkey; rat); assay: SPR (BIAcore T100), IgG2 captured on anti-human Fc, PD-1 injected, 1:1 fit
[2] = target: T1, cynomolgus monkey PD-1-rCD4; assay: SPR, ratio of KD values, Table 2
[3] = target: T2, PD-1-Fc (UniProt Q15116 25-167, limits assumed); assay: competition ELISA: PD-1-Fc (0.8 nM) premixed with 0.5 nM antibody, added to captured PD-L1-rCD4 (competitor)
T2 construct: not shown: Fc part, detected with anti-human IgG Fc

[4] = target: PD-1 expressed on Jurkat cells (NFAT-luc2/PD-1 Jurkat Cells, Promega, CS187102) (UniProt Q15116 25-288, limits assumed); assay: cell-based or functional assay
[5] = target: T2, PD-1-Fc; assay: competition ELISA: PD-1-Fc (0.8 nM) premixed with 1 nM antibody, added to captured PD-L1-rCD4 (competitor)
[6] = target: T2, PD-1-Fc; assay: competition ELISA: PD-1-Fc (0.8 nM) premixed with 8 nM antibody, added to captured PD-L1-rCD4 (competitor)
[7] = target: T3, human PD-1-rCD4 (human; rat, UniProt Q15116 25-170; P05540 207-392, limits assumed); assay: SPR (BIAcore T100), IgG2 captured on anti-human Fc, PD-1 injected, 1:1 fit
T3 construct: Analyte in SPR

[8] = target: T3, human PD-1-rCD4; assay: SPR (BIAcore T100), IgG2 captured on anti-human Fc, PD-1 injected, 1:1 fit; Table 1 prints 3.8
[9] = target: T1, cynomolgus monkey PD-1-rCD4; assay: SPR (BIAcore T100), IgG2 captured on anti-human Fc, PD-1 injected, 1:1 fit; Table 1 prints 8.7
[10] = target: T4, mouse PD-1 (mouse, UniProt Q02242 25-167, limits assumed); assay: SPR (BIAcore T100), IgG2 captured on anti-human Fc, PD-1 injected, 1:1 fit
T4 construct: also called murine PD-1
T4 sequence (looked up): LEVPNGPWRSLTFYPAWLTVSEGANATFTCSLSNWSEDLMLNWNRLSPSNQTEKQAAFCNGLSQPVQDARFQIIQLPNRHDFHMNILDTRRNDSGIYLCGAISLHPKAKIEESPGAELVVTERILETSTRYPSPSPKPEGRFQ

T2 sequence (Q15116 25-167 limits assumed): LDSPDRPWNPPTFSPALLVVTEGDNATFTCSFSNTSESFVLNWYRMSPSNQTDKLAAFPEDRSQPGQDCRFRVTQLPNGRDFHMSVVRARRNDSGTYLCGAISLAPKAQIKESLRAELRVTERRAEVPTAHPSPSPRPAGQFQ
T1 sequence (P05540 207-392): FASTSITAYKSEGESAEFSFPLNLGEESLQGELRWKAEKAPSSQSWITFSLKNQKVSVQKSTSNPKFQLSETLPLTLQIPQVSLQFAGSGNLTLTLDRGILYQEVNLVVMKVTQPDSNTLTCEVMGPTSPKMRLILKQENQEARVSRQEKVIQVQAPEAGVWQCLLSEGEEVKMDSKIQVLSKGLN
T3 sequence (Q15116 other isoform, or with tags, fused parts or gaps limits assumed): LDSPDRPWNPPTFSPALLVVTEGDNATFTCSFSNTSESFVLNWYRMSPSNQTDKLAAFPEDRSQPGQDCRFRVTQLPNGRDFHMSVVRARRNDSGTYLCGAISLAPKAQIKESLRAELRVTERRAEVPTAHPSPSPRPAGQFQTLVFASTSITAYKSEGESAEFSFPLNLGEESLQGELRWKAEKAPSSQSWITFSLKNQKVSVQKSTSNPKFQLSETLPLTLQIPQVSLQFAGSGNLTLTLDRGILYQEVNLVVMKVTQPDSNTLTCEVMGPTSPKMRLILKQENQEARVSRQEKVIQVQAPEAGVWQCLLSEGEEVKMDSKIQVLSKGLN
Sequence of PD-1 expressed on Jurkat cells (NFAT-luc2/PD-1 Jurkat Cells, Promega, CS187102) (Q15116 25-288 limits assumed): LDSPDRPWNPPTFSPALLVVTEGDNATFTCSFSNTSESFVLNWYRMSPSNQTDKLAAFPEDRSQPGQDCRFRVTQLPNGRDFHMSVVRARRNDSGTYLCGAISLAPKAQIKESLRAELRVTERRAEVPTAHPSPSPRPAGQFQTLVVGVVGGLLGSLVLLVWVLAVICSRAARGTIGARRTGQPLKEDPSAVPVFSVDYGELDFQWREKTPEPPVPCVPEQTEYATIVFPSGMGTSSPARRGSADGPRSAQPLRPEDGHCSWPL

B1: Nivolumab (IgG2 format, as used in the experiments of the filing) (antibody, V domains shown)
VH: QVQLVESGGGVVQPGRSLRLDCKASGITFSNSGMHWVRQAPGKGLEWVAVIWYDGSKRYYADSVKGRFTISRDNSKNTLFLQMNSLRAEDTAVYYCATNDDYWGQGTLVTVSS
VL: EIVLTQSPATLSLSPGERATLSCRASQSVSSYLAWYQQKPGQAPRLLIYDASNRATGIPARFSGSGSGTDFTLTISSLEPEDFAVYYCQQSSNWPRTFGQGTKVEIKR
Kd [1]: 5.22 nM

B2: 273_C01_A12 (antibody, human IgG2, kappa, V domains shown)
VH: EVQLVQSGAEVKKPGSSVKVSCKASGYTFTSYYVHWVRQAPGQGLEWMGGIIPIFGTANYAQKFQGRVTITADESISTAYMELSSLRSEDTAVYYCARDLHGYSYGYPGYWGQGTLVTVSS
VL: DIVMTQSPLSLPVTLGQPASISCRSSQSLVYSDANTYLNWFQQRPGQSPRRLIYEVSNRESGVPDRFSGSGSATDFTLKISRVEAEDVGVYYCMQGTQLPLTFGGGTKVEIKR
Fold Difference (Kd on cynomolgus PD-1 against Kd on human PD-1) [2]: 2.1 fold | % inhibition of the PD-1/PD-L1 interaction [3]: ~75% | EC50, NFAT-luciferase reporter activity (PD-1/PD-L1 cell reporter assay) [4]: 11.7 nM | % inhibition of the PD-1/PD-L1 interaction [5]: ~99% | % inhibition of the PD-1/PD-L1 interaction [6]: 99% | Kd [7]: 10 nM | koff [7]: 0.0061 s⁻¹ | kon [7]: 606000 M⁻¹ s⁻¹ | Kd [1]: 21 nM | koff [1]: 0.0115 s⁻¹ | kon [1]: 548000 M⁻¹ s⁻¹

B3: 273_C12_C05 (original clone) (antibody, human IgG2, kappa, V domains shown)
VH: EVQLVQSGAEVKKPGSSVKVSCKASGYTFTSYYVHWVRQAPGQGLEWMGGIIPIFGTANYAQKFQGRVTITADESTSTAYMELSSLRSEDTAVYYCARDLHGYSYGYPGYWGQGTLVTVSS
VL: DIVMTQSPLSLPVTLGQPASISCRSSQSLVYHDGNTYLNWFQQRPGQSPRRLIYEVSNRDSGVPDRFSGSGSDTDFTLKISRVEAEDVGVYYCMQGAYRPLTFGQGTKVEIKR
Fold Difference (Kd on cynomolgus PD-1 against Kd on human PD-1) [2]: 2.29 fold | % inhibition of the PD-1/PD-L1 interaction [3]: ~75% | EC50, NFAT-luciferase reporter activity (PD-1/PD-L1 cell reporter assay) [4]: 9.35 nM | % inhibition of the PD-1/PD-L1 interaction [5]: ~99% | Kd [8]: 3.84 nM | % inhibition of the PD-1/PD-L1 interaction [6]: 99% | Kd [9]: 8.77 nM | Kd [10]: 6400 nM | koff [10]: 0.00357 s⁻¹ | Kd [7]: 3.8 nM | koff [7]: 0.0015 s⁻¹ | kon [7]: 392000 M⁻¹ s⁻¹ | Kd [1]: 8.7 nM | koff [1]: 0.0034 s⁻¹ | kon [1]: 387000 M⁻¹ s⁻¹
